Results from PMC4289617 (Journal of medicinal chemistry, 2010).
Where two headings read alike, the source gives them in different places. Me3 = trimethyl-lysine, K(Me3)

Key:
[1] = target: T1, WDR5Δ23 (WD repeat domain 5, residues 24–334) (human, UniProt P61964 24-334); test: fluorescence polarisation
[2] = target: T1, WDR5Δ23 (WD repeat domain 5, residues …); test: fluorescence polarisation; remark: listed apart in the source

Row | Binder | IC50 [1] [µM] | Ki [1] [µM] | IC50 [2] [µM] | Ki [2] [µM]
1 | Ac-RAEVHLRKS-NH2 [Ac-9mer (Ac-10mer without Ala1)] | 29 | 6.3 |  | 
2 | H-ARTK(Me3)QTARKS-NH2 [H3-10mer-K4Me3 (H2N-ARTK(Me3)QTARKS-NH2)] |  |  | 73 | 15.6
3 | Ac-ARAEVH-NH2 [Ac-6mer] |  | 0.09 |  | 

The next lines start with the values.

Row | IC50 [1] [µM] | Ki [1] [µM] | IC50 [2] [µM] | Ki [2] [µM] | Binder
4 |  |  |  | < 0.001 | Ac-ARTKQTARKS-NH2 [Ac-H3-10mer (Ac-ARTKQTARKS-NH2)]
5 |  | 0.003 |  |  | Ac-ARAEVHLRKS-NH2 [Ac-10mer (Ac-ARAEVHLRKS-NH2)]
